Measurements as given in US11141452 (dated 2021).
Non-standard residues stand in square brackets, D forms with d. No end group written: not given here. *: point of attachment. NH(3,5-(CF3)2-benzyl) = FC(F)(F)c1cc(CN*)cc(C(F)(F)F)c1; Dmt = Cc1cc(O)cc(C)c1C[C@H](N)C(=O)O; NMeF = CN[C@@H](Cc1ccccc1)C(=O)O; 4‑Ampa = not defined here; hSer = N[C@@H](CCO)C(=O)O; Orn = NCCC[C@H](N)C(=O)O; Dab = NCC[C@H](N)C(=O)O; Dap = NC[C@H](N)C(=O)O; NHBn = c1ccc(CN*)cc1

B1: AKG171 (peptide)
chain: Y[dA]G[NMeF][Dap]PLW-NHBn
B2: AKG038 (peptide)
chain: Y[dA]GFSPLW
modifications: not fully specified (C-terminus)
B3: AKG172 (peptide)
chain: Y[dA]G[NMeF][Dab]PLW-NHBn
B4: AKG126 (peptide)
chain: Y[dA]G[NMeF]SPLW-NHBn
B5: AKG101 (peptide)
chain: Y[dA]GF[dS]PLW-NHBn
B6: AKG132 (peptide)
chain: [Dmt][dA]G[NMeF]SPLW-NHBn
B7: AKG039 (peptide)
chain: Y[dA]GF[hSer]PLW-NHBn
B8: AKG173 (peptide)
chain: Y[dA]G[NMeF][Orn]PLW
modifications: not fully specified (C-terminus)
B9: AKG181 (peptide)
chain: XAGFPLW
modifications: Dmt1, D-NMeAla2; C-terminal NH-Bn(3',5'-(CF3)2)
B10: AKG183 (peptide)
chain: XAGFPLW
modifications: Dmt1, D-NMeAla2, NMeGly3; C-terminal NH-Bn(3',5'-(CF3)2)
B11: AKG182 (peptide)
chain: XAGFPLW
modifications: Dmt1, D-Ala2, NMeGly3, NMePhe4; C-terminal NH-Bn(3',5'-(CF3)2)
B12: AKG184 (peptide)
chain: XAGFPLW
modifications: Dmt1, D-NMeAla2, NMePhe4; C-terminal NH-Bn(3',5'-(CF3)2)
B13: AKG185 (peptide)
chain: XAGFPLW
modifications: Dmt1, D-NMeAla2, NMeGly3, NMePhe4; C-terminal NH-Bn(3',5'-(CF3)2)
B14: AKG180 (peptide)
chain: XAGFPLW
modifications: Dmt1, D-Ala2, NMeGly3; C-terminal NH-Bn(3',5'-(CF3)2)
B15: AKG178 (peptide)
chain: Y[dA]G[NMeF][4‑Ampa]PLW-{NH(3,5-(CF3)2-benzyl)}
modifications: reading uncertain
B16: AKG107 (peptide)
chain: XAGFMPLW
modifications: not fully specified; Dmt1, D-Ala2, NMePhe4 as described; C-terminal benzylamide
B17: AKG106 (peptide)
chain: Y[dA]G[NMeF]MPLW-NHBn
B18: AKG174 (peptide)
chain: Y[dA]G[NMeF]KPLW
modifications: not fully specified (C-terminus)

Target: T1, delta opioid receptor (DOR) (UniProt P41143)
T1 chain: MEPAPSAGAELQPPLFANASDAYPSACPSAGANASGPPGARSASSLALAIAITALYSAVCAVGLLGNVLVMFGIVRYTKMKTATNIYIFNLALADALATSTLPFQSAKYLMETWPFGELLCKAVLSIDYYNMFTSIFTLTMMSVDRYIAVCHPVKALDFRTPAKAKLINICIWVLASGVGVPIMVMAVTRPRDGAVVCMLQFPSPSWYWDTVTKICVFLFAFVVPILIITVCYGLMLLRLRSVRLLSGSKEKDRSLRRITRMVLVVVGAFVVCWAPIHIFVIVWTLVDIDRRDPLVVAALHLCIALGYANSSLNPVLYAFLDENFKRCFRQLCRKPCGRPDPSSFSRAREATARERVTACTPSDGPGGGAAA
Assay: competition

Binder	Ki [nM]
B1	33
B2	7
B3	100
B4	63
B5	34
B6	2
B7	6
B8	0.05

Target: T2, human NK1 receptor (human, UniProt P25103)
T2 chain: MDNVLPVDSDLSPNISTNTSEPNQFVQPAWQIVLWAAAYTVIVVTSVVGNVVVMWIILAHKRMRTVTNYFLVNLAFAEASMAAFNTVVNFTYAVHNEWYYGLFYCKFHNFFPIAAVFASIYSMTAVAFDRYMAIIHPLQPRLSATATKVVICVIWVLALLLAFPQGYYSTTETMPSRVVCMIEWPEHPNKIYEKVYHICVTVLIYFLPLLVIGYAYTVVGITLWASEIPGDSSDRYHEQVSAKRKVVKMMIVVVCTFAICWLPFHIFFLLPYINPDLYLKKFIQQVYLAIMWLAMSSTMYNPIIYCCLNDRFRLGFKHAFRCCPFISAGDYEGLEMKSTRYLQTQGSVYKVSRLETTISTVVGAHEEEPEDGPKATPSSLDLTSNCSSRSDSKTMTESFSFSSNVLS
Assay: competition

Binder	Ki [nM]
B9	4.81
B10	2.49
B11	5
B12	2.84
B13	3.47
B14	2.86

Target: T3, rat NK1 receptor (rat, UniProt P14600)
T3 chain: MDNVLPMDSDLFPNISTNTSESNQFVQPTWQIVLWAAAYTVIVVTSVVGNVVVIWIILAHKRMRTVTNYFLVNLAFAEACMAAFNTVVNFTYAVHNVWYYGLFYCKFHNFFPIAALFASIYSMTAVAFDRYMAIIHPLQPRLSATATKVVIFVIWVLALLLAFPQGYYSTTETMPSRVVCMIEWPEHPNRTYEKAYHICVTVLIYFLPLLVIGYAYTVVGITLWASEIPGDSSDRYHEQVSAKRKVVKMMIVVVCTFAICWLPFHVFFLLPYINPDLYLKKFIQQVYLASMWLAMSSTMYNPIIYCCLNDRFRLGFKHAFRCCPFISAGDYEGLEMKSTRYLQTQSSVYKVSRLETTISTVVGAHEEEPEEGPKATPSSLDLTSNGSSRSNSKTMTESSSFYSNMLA
Assay: competition

Binder	Ki [nM]
B9	26.4
B10	17.6
B11	110
B12	115
B13	74.8
B14	17.1

Target: T2, human NK1 receptor
Assay: competition
Remark: another data set of the same source

Binder	Ki [nM]
B15	3.5
B16	1.97
B17	1.47

Target: mu opioid receptor (MOR) (UniProt P35372)
Sequence (P35372 whole entry): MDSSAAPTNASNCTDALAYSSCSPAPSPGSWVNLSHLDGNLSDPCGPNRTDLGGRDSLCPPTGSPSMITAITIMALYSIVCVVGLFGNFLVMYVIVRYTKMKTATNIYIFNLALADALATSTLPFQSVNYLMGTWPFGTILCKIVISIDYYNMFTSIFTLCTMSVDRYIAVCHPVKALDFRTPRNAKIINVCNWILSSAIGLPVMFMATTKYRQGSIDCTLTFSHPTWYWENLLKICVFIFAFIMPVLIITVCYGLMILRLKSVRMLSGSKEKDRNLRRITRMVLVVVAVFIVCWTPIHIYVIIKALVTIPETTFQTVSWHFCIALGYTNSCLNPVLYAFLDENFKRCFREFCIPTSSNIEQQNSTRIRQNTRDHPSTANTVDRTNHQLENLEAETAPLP
Assay: competition

Binder	Ki [nM]
B18	8
B1	3
B2	127
B3	8
B4	2
B5	196
B6	0.4
B7	116
B8	5

Target: T2, human NK1 receptor
Assay: competition
Remark: another data set of the same source

Binder	Ki [nM]
B18	3.18
B1	2.98
B2	1.94
B3	3.05
B4	0.86
B5	2.77
B6	5.61
B7	1.32
B8	15.5

Target: T3, rat NK1 receptor
Assay: competition
Remark: another data set of the same source

Binder	Ki [nM]
B15	72.3
B16	13.6
B17	9.9

Target: T1, delta opioid receptor (DOR)
Assay: competition
Remark: another data set of the same source

Binder	Ki [nM]
B15	100

Target: T3, rat NK1 receptor
Assay: competition
Remark: another data set of the same source

Binder	Ki [nM]
B18	7.31
B1	8.59
B2	206
B3	8.24
B4	31.5
B5	108
B6	31.1
B7	148
B8	65.2
